This is an account of results in US20210107943A1 (UNIVERSITY OF FLORIDA RESEARCH FOUNDATION, published 2021).

B3: mCATCH(+) peptide, Ac-QQKPKPKPKQQ-Am (peptide)
peptide: Ac-QQKPKPKPKQQ-NH2
notes: Mutant with proline in place of the phenylalanine residues; also called mutant of CATCH(+)

Data set [1] addresses T1, mCATCH(-) peptide, Ac-EQEPEPEPEQE-Am.
T1 construct: Mutant with proline in place of the phenylalanine residues; also called mutant of CATCH(-)
T1 peptide: Ac-EQEPEPEPEQE-NH2
As to the kind of experiment: ThT fluorimetry, equimolar mixture. As for the experimental part: (§1) Thioflavin T (ThT) Assay. A ThT stock solution containing 0.8 mg/mL of thioflavin T (Acros) in 1× phosphate-buffered saline (PBS) (137 mM NaCl, 2.7 mM, KCl, 10 mM Na₂HPO₄ and 1.8 mM KH₂PO₄, pH 7.4) was filtered through a 0.22 μm syringe filter (Millex), and further diluted 1:10 with 1× PBS to create a working solution. Peptide samples were mixed with the ThT working solution at a 1:10 (v/v) ratio, added to a black 96-well plate (Corning), and analyzed with a Molecular Devices SpectraMax M3 spectrophotometer (excitation 450, emission 482 nm). All samples were run in triplicate, with the mean and standard deviation of these samples reported.
(§2) Nanofiber preparation. Stock solutions of CATCH(−) and CATCH(+) were prepared by dissolving lyophilized peptides in 1× PBS to a final concentration of 500 μM. Peptide concentration was confirmed using Phe absorbance (λ=260 nm). CATCH peptides were then mixed at a 1:1 (v/v) ratio and incubated overnight for formation of nanofibers, unless stated otherwise.

Data set [2] concerns the molecule itself. As to the kind of experiment: TEM and circular dichroism of the peptide alone (self-assembly).
For data set [3], the target named is B3. As to the kind of experiment: ThT fluorimetry, equimolar mixture. As to the method: as §1, §2
Data set [4] concerns the molecule itself. Put plainly: ThT fluorescence microscopy and the data taken together (self-assembly). As for the experimental part:
For samples containing only CATCH peptides, ThT was mixed with samples at a 1:1 (v/v) ratio, 5 μL of each sample was placed onto a glass microscope slide, samples were covered with a cover slip, and samples were viewed using a GFP filter set. For samples containing CATCH peptides and CATCH(−)GFP, 0.75 μM CATCH(−)GFP was mixed with 200 μM CATCH(+) and 187.5 μM CATCH(−), unless otherwise specified. 5 μL of each sample was placed onto a glass microscope slide, samples were covered with a cover slip, and samples were viewed using a GFP filter set. For all samples, images were collected using an exposure time of 4 s.

Data set [5] addresses T1, mCATCH(-) peptide, Ac-EQEPEPEPEQE-Am. As to the kind of experiment: ThT fluorimetry, kinetic.

B1: CATCH(+) peptide, Ac-QQKFKFKFKQQ-Am (peptide)
peptide: Ac-QQKFKFKFKQQ-NH2
notes: also called CATCH (4+); positive peptide segment
Take B1: the binding result in data set [1] and in data set [2] was “no binding” each time.

B2: CATCH(-) peptide, Ac-EQEFEFEFEQE-Am (peptide)
peptide: Ac-EQEFEFEFEQE-NH2
notes: also called CATCH (6-); negative peptide segment
For the molecule B2, the binding result in data set [3] and in data set [4] was “no binding” in each case.

On to B3, for which the binding result in data set [5] is “no binding”.
